Data as given in patent publication US20110008383A1.

Assays:
DR 13 molecules = DR 13 molecules (UniProt P01903); experiment: peptide competition assay with DR 13 molecules
[1] = biological target: CS protein on PfPb transgenic sporozoites (P. falciparum CS repeats in the context of the P. berghei CS protein); experiment: cell-based or functional assay

Substance | IC50 (DR 13 molecules) | inhibition in TSNA, about 25 µg antibody [1]
P. falciparum peptide (T* universal epitope of the CS protein) | 1.8 µM | –
MAB 2A10 (antibody) | – | 96%
